Consider 72 sequences from the supplement of paper PMC10567573.

± gives the standard deviation.

This data set can be described thus: protein stability index of a GFP-peptide fusion (GPS, HEK-293T) (PSI 1-6); higher = more stable.
Where [1] appears, read: treatment: DMSO, c terminus: a fixed tail appended.
Where [2] appears, read: treatment: MLN4924 1 uM, 8 h, c terminus: a fixed tail appended.
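Note: 24-mer peptide tiles fused after GFP, lentivirally expressed, FACS-sorted into six equal bins by GFP/DsRed ratio, decoded by Illumina sequencing, PSI is the read-weighted mean bin number.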

Take SISEEGFHYLVFDLVTGGELFEDI [CAMK2B]: the protein stability index turned out to be 2.32 ± 0.42 under setting [1] and 2.24 ± 0.4 under setting [2].
The corresponding values for SISKLSPFSEFFKLRFNRKKKGMY [PWWP2B] are 2.06 ± 0.25 and 2.31 ± 0.19.
For the sequence SKRKAETWKKNRRQLAYSTVGTPD [STK38L], the protein stability index by setting is: under setting [1], 4.02 ± 0.41; under setting [2], 4.33 ± 0.5.
Regarding SKYQLSEAQLSLIRDIRRRGKNKM [NFE2L1], the protein stability index by setting is: under setting [1], 3.69 ± 0.28; under setting [2], 3.9 ± 0.54.
The corresponding values for SLCNLEESITSAGRDDLESFQLEI [FAM98B] are 3.26 ± 0.16 and 3.45 ± 0.19.
The corresponding values for SLCVLVSTVGKLCRLINEDVNEQV [CEP70] are 3.25 ± 0.48 and 2.96 ± 0.21.
Turning to SLGSALKPGEGRSALFAGNEWRRP [TRIM29], the protein stability index is, setting by setting: under setting [1], 3.46 ± 0.26; under setting [2], 3.31 ± 0.21.
Regarding SLHKGAKRKGIKSSIGRLFGKKEK [PPFIA4], the protein stability index stood at 3.6 ± 0.46 under setting [1] and 3.73 ± 0.18 under setting [2].
The corresponding values for SLIFSLKNEVGGLIKALKIFQEKH [TPH1] are 2.07 ± 0.23 and 2.75 ± 0.82.
For SLKEEHRAYDLLRAASENSQDALR [IKZF1], the protein stability index stood at 4.32 ± 0.52 under setting [1] and 4.36 ± 0.34 under setting [2].
In the case of SLSNAVANTMEHLSLLDNNIPGNS [FBXO33], the protein stability index is, setting by setting: under setting [1], 3.64 ± 0.092; under setting [2], 3.94 ± 0.28.
For SMKGSCGIGGGIGGGSSRISSVLA [KRT16], the protein stability index is 2.54 ± 0.42 under setting [1] and 2.64 ± 0.33 under setting [2].
The sequence SMNWGINLLISLTFLTVTDLIGLP [SLC2A12] displayed a protein stability index under setting [1] of 3.3 ± 0.18 and a protein stability index under setting [2] of 3.02 ± 0.12.
Take SMSTRRLGVAVAVLGGFLYAVGGS [KLHL20]: the protein stability index by setting is: under setting [1], 2.29 ± 0.42; under setting [2], 2.67 ± 1.2.
SNFNYFYHRETEGEEQAQLLHVSS [KCNA1] displayed a protein stability index under setting [1] of 3.95 ± 0.12 and a protein stability index under setting [2] of 4.03 ± 0.34.
Regarding SNHSWNTQTWCTQSWNNQAWNSPF [NANOGP8], the protein stability index by setting is: under setting [1], 2.24 ± 0.23; under setting [2], 2.19 ± 0.18.
In turn, SNVSSSGSINLLESPQLATLAEDV [MAP2] came in with a protein stability index under setting [1] of 5.03 ± 0.22 and a protein stability index under setting [2] of 5.17 ± 0.24.
The corresponding values for SPDILEEKHCEFKQLALDHFKKTK [ATL3] are 4.79 ± 0.23 and 4.79 ± 0.12.
Regarding SPPDQPAVPHPPPSTPIKLEEGDG [ADD1], the protein stability index was 5.56 ± 0.2 under setting [1] and 5.62 ± 0.18 under setting [2].
SPPSSSAASSYSFSDLNSTRGDAD [EMD] had a protein stability index under setting [1] of 5.12 ± 0.29 and a protein stability index under setting [2] of 4.98 ± 0.2.
The like results for SQEESEEGEEDATSEVDKRRTRPR [CHGB] were, in that order, 5.57 ± 0.33 and 5.59 ± 0.2.
For the sequence SRQLLPGDEFSLREHELLCRADHG [ISL2], the protein stability index came out at 4.19 ± 0.17 under setting [1] and 4.27 ± 0.089 under setting [2].
In the case of SRVLQNGGDKLETMPLYLEDDIRP [SCD], the protein stability index came to 4.66 ± 0.23 under setting [1] and 4.53 ± 0.21 under setting [2].
For SSAVSGVKEWFGLGGEQAEEKAFE [MIA2], the protein stability index amounted to 5.09 ± 0.43 under setting [1] and 5.04 ± 0.19 under setting [2].
Take SSDSVGGFRYSERYDPEPKSKWDE [CLINT1]: the protein stability index came to 4.98 ± 0.29 under setting [1] and 4.95 ± 0.091 under setting [2].
The corresponding values for SSFFFSGVFVGVISFGQLSDRFGR [SLC22A15] are 2.96 ± 0.94 and 3.021 ± 0.018.
Turning to SSGKNVTLLVCGKKAYDYFQAKKI [PDZK1], the protein stability index is 2.13 ± 0.26 under setting [1] and 2.57 ± 0.82 under setting [2].
SSGPGNSQNSFLVQEVMEEEWNAL [RPAIN]: the protein stability index reads like this: under setting [1], 4.88 ± 0.2; under setting [2], 4.92 ± 0.25.
In the case of SSMKKFCRPLLPSCTTRLCQEEQL [PSD2], the protein stability index was found to be 2.88 ± 0.29 under setting [1] and 2.98 ± 0.15 under setting [2].
With SSQKQHSFTSSDKTIKSFFPHSGK [C8orf76], the protein stability index reads like this: under setting [1], 3.9 ± 0.085; under setting [2], 4.15 ± 0.14.
SSRGAPRGGGRGGSRSDRGGGRSR [RBMX]: the protein stability index runs as follows: under setting [1], 5.34 ± 0.18; under setting [2], 5.45 ± 0.28.
As for SSSSGVLMVGPNFRVGKKIGCGNF [CSNK1G3], the protein stability index is, setting by setting: under setting [1], 2.71 ± 0.38; under setting [2], 2.71 ± 0.21.
Turning to SSSYSPETFRQQFRQFGYQDSPGP [ZNF396], the protein stability index runs as follows: under setting [1], 3.48 ± 0.23; under setting [2], 3.24 ± 0.21.
In the case of SSTLNPSTSSSTQGDPAFPEMNGN [NOL4L], the protein stability index came to 5.44 ± 0.25 under setting [1] and 5.44 ± 0.2 under setting [2].
The like results for SSWPFSIQDVVQPLTLQVQRPLVS [AUP1] were, in that order, 2.77 ± 0.32 and 3.03 ± 0.2.
With STHQEAENEKDRADQTVLTEDEKK [CHGB], the protein stability index under setting [1] was 5.35 ± 0.48 and the protein stability index under setting [2] was found to be 5.83 ± 0.091.
In the case of STRPEEGCSLHEEDTQRHETYHQQ [TCAP], the protein stability index amounted to 5.47 ± 0.21 under setting [1] and 5.47 ± 0.2 under setting [2].
Consider SVAVAARHAQTISGHALRILIVDW [HDAC6], for which the protein stability index under setting [1] worked out at 2.82 ± 0.73 and the protein stability index under setting [2] was 2.62 ± 0.63.
On to SVILSVKFSPFGQWWASVGMDDFL [TLE6], for which the protein stability index amounted to 3.22 ± 0.46 under setting [1] and 3.02 ± 0.49 under setting [2].
In the case of SVWGYDLGLRSLIPAVLTVSMLGY [MYORG], the protein stability index was found to be 3.05 ± 0.29 under setting [1] and 3.06 ± 0.4 under setting [2].
Regarding SWVLSMLYGFLLTFGFITMTPQLF [CLPTM1], the protein stability index is, setting by setting: under setting [1], 3.21 ± 0.47; under setting [2], 3.03 ± 0.16.
For SYMLQDSLEHVQLFDLMRRMLEFD [CLK3], the protein stability index runs as follows: under setting [1], 2.35 ± 0.027; under setting [2], 2.47 ± 0.21.
As for TANTFRVMFKEPIEILPNVCYTAC [BTBD1], the protein stability index was determined as 2.46 ± 0.44 under setting [1] and 2.18 ± 0.3 under setting [2].
Turning to TAQSTFNDLQDLREQILRVKDTDD [RAP1B], the protein stability index worked out at 5.01 ± 0.31 under setting [1] and 4.97 ± 0.27 under setting [2].
Turning to TDFKDKIVLDVGCGSGILSFFAAQ [CARM1], the protein stability index under setting [1] stood at 2.3 ± 0.43 and the protein stability index under setting [2] came out at 2.27 ± 0.27.
With TDSPWIKPARKRRRRSRKKPSGAL [EHMT1], the protein stability index was found to be 5.2 ± 0.39 under setting [1] and 5.22 ± 0.47 under setting [2].
The like results for TEALGCDPPLSQDERTHRSDRPFK [ZNF8] were, in that order, 5.39 ± 0.28 and 5.26 ± 0.16.
With TEPETAPTTEPETEPEDDRGPVVP [GNAS], the protein stability index came to 5.61 ± 0.14 under setting [1] and 5.63 ± 0.27 under setting [2].
In the case of TFHDSKHNIVHVHFDATRGWLLTS [WDFY2], the protein stability index by setting is: under setting [1], 2.44 ± 0.31; under setting [2], 2.17 ± 0.13.
As for TFKSFEDRVGTIKSKVVGDRENGS [TPD52L2], the protein stability index was 4.65 ± 0.062 under setting [1] and 4.7 ± 0.29 under setting [2].
On to TFRVSSDLIKHQRIHTEEKPYKCQ [ZNF75A], for which the protein stability index is, setting by setting: under setting [1], 3.67 ± 0.15; under setting [2], 3.8 ± 0.23.
Consider TFVNVYIASFIRGPNPSKLIQQFL [CDS2], for which the protein stability index by setting is: under setting [1], 2.4 ± 0.65; under setting [2], 2.73 ± 0.6.
Regarding TGFLIIILAIIAKEGDCAPEEKIW [MAGEA6], the protein stability index by setting is: under setting [1], 2.93 ± 0.65; under setting [2], 2.71 ± 0.61.
Regarding TGPAWNVLMWTMLFLGQGIQVSLY [SOAT2], the protein stability index reads like this: under setting [1], 3.38 ± 0.42; under setting [2], 3.26 ± 0.34.
As for TGVVEFVRKEDMTYAVRKLDNTKF [SRSF1], the protein stability index is, setting by setting: under setting [1], 3.02 ± 0.3; under setting [2], 3.26 ± 0.29.
The corresponding values for THADMDGKRTPRGRRGWKKFYAVL [PSD2] are 2.65 ± 0.15 and 2.9 ± 0.11.
Consider THLEGDTVQIICNTGYRLQNNENN [CFHR2], for which the protein stability index runs as follows: under setting [1], 3.79 ± 0.22; under setting [2], 3.87 ± 0.14.
The corresponding values for THMYLQSDDEMELEETEPPLEPED [P3H4] are 5.4 ± 0.2 and 5.38 ± 0.29.
TIIEPAGESDNPLRFTSGLVVALD [INTS4]: the protein stability index is, setting by setting: under setting [1], 3.07 ± 0.37; under setting [2], 3.24 ± 0.54.
As to TKHKCRQLTKASLKPRGCSKPPWR [SPACA9], the protein stability index worked out at 2.85 ± 0.4 under setting [1] and 3.42 ± 0.47 under setting [2].
TKITSAFKYINTVISCTIFIVGMV [EDNRA] registered a protein stability index under setting [1] of 2.91 ± 1.1 and a protein stability index under setting [2] of 2.48 ± 1.
Turning to TKPQNLNDAYGPPSNFLEIDVSNP [SNX3], the protein stability index turned out to be 4.46 ± 0.42 under setting [1] and 4.29 ± 0.47 under setting [2].
Consider TKTEDRELVLRKDCPKIVEPHGKM [ZSCAN9], for which the protein stability index is, setting by setting: under setting [1], 4.79 ± 0.083; under setting [2], 4.72 ± 0.28.
For TLAGLRSRRLKQPKAFCLRDVAP [MIR22HG], the protein stability index by setting is: (treatment: DMSO, c terminus: native) 3.11 ± 0.44; (treatment: MLN4924 1 uM, 8 h, c terminus: native) 2.99 ± 0.21.
For the sequence TLAQAHFNNGEYAEAEALYSAYIR [TTC32], the protein stability index turned out to be 2.98 ± 0.27 under setting [1] and 3.39 ± 0.21 under setting [2].
Regarding TLDKCGICQGDGSSCTHVTGNYRK [ADAMTSL2], the protein stability index runs as follows: under setting [1], 4.91 ± 0.35; under setting [2], 4.97 ± 0.33.
For the sequence TLDLSDLEAEKLVMFQRRYYKPGL [SCD], the protein stability index reads like this: under setting [1], 2.54 ± 0.3; under setting [2], 2.88 ± 0.35.
As to TLEQILEHLDNLRLNLTNTKQNFF [INTS3], the protein stability index was determined as 2.23 ± 0.54 under setting [1] and 2.31 ± 0.11 under setting [2].
TLHGNVCSFCKRAFPSGHLLDAHI [ZNF511]: the protein stability index is, setting by setting: under setting [1], 2.81 ± 0.27; under setting [2], 2.95 ± 0.46.
In the case of TLIPTCKFYTWLWGVFYYFVSALG [SCD], the protein stability index reads like this: under setting [1], 2 ± 0.52; under setting [2], 2.13 ± 0.15.
As for TLLHFSAARGKERCVRVFLEHGAD [ASB7], the protein stability index under setting [1] worked out at 2 ± 0.2 and the protein stability index under setting [2] came to 2.21 ± 0.3.
Turning to TLPLTLIVILENIAVAWIYGTKKF [SLC6A17], the protein stability index runs as follows: under setting [1], 3.03 ± 0.34; under setting [2], 3.35 ± 0.43.
